Source: patent US20250011363A1, “OPTIMIZED SHORTENED PEPTIDE THAT BINDS TO ACETYLCHOLINE RECEPTOR, AND USE THEREOF” (SKINMED CO., LTD., priority 2021, published 2025)

B1: 6mer-1-269 (peptide)
peptide: RKRRQR
B2: 6mer-1-270 (peptide)
peptide: KRGLRR
B3: 6mer-1-271 (peptide)
peptide: RRQVSK
B4: 6mer-1-272 (peptide)
peptide: KKQVSR
B5: 6mer-1-273 (peptide)
peptide: KKQVSK
B6: 6mer-1-274 (peptide)
peptide: KRLLYK
B7: 6mer-1-275 (peptide)
peptide: RKRVLK
B8: 6mer-1-276 (peptide)
peptide: RRVICK
B9: 6mer-1-277 (peptide)
peptide: KKGLCR
B10: 6mer-1-278 (peptide)
peptide: KRQQTR
B11: 6mer-1-279 (peptide)
peptide: RRLRYR
B12: 6mer-1-280 (peptide)
peptide: RKLQCK
B13: 6mer-1-281 (peptide)
peptide: KRLLCR
B14: 6mer-1-282 (peptide)
peptide: RRRRYR
B15: 6mer-1-283 (peptide)
peptide: KKWVQK
B16: 6mer-1-284 (peptide)
peptide: KRSRQK
B17: 6mer-1-285 (peptide)
peptide: KRWVQR
B18: 6mer-1-286 (peptide)
peptide: RKLISK
B19: 6mer-1-287 (peptide)
peptide: RKWLTR
B20: 6mer-1-288 (peptide)
peptide: KKVQQR
B21: 6mer-1-289 (peptide)
peptide: RKRYYR
B22: 6mer-1-290 (peptide)
peptide: RKQLTK
B23: 6mer-1-291 (peptide)
peptide: KKQIRK
B24: 6mer-1-292 (peptide)
peptide: RKWQTK
B25: 6mer-1-293 (peptide)
peptide: RKRVCK
B26: 6mer-1-294 (peptide)
peptide: KKLYRR
B27: 6mer-1-295 (peptide)
peptide: KRQRCR
B28: 6mer-1-296 (peptide)
peptide: RKSIRR
B29: 6mer-1-297 (peptide)
peptide: RRGFSK
B30: 6mer-1-298 (peptide)
peptide: KKLYCK
B31: 6mer-1-299 (peptide)
peptide: KRWLSK
B32: 6mer-1-300 (peptide)
peptide: RRWQQK
B33: 6mer-1-301 (peptide)
peptide: RRSILR
B34: 6mer-1-302 (peptide)
peptide: RRGQSR
B35: 6mer-1-303 (peptide)
peptide: RKQYCK
B36: 6mer-1-304 (peptide)
peptide: RKLYSR
B37: 6mer-1-305 (peptide)
peptide: RKWISR
B38: 6mer-1-306 (peptide)
peptide: KKLFYR
B39: 6mer-1-307 (peptide)
peptide: KRWYRR
B40: 6mer-1-308 (peptide)
peptide: KRRITR
B41: 6mer-1-309 (peptide)
peptide: KKGICK
B42: 6mer-1-310 (peptide)
peptide: RKRQLK
B43: 6mer-1-311 (peptide)
peptide: RRGYQK
B44: 6mer-1-312 (peptide)
peptide: KKSRQK
B45: 6mer-1-313 (peptide)
peptide: RRWFCK
B46: 6mer-1-314 (peptide)
peptide: RRRILR
B47: 6mer-1-315 (peptide)
peptide: RKQQTK
B48: 6mer-1-316 (peptide)
peptide: RKQIRK
B49: 6mer-1-317 (peptide)
peptide: KRSFRR
B50: 6mer-1-318 (peptide)
peptide: KKSRRK
B51: 6mer-1-319 (peptide)
peptide: KRWVQK
B52: 6mer-1-320 (peptide)
peptide: KRVQYR
B53: 6mer-1-321 (peptide)
peptide: RKQVRR
B54: 6mer-1-322 (peptide)
peptide: KRGVQR
B55: 6mer-1-323 (peptide)
peptide: RRWLYR
B56: 5mer-1037 (peptide)
peptide: KKSFR
B57: 5mer-738 (peptide)
peptide: KTPMK
B58: 5mer-1038 (peptide)
peptide: KCCKR
B59: 5mer-739 (peptide)
peptide: KDCPR
B60: 5mer-1039 (peptide)
peptide: KKDVK
B61: 5mer-740 (peptide)
peptide: RMMGK
B62: 5mer-1040 (peptide)
peptide: KTPWR
B63: 5mer-741 (peptide)
peptide: KPTPR
B64: 5mer-1041 (peptide)
peptide: RDWFK
B65: 5mer-742 (peptide)
peptide: RNSDK
B66: 5mer-1042 (peptide)
peptide: RCCAK
B67: 5mer-743 (peptide)
peptide: KYAFR
B68: 5mer-1043 (peptide)
peptide: KFEMK
B69: 5mer-744 (peptide)
peptide: KTEAK
B70: 5mer-1044 (peptide)
peptide: RDCFK
B71: 5mer-745 (peptide)
peptide: RMEIK
B72: 5mer-1045 (peptide)
peptide: KMDEK
B73: 5mer-746 (peptide)
peptide: RMTVK
B74: 5mer-1046 (peptide)
peptide: KHTMR
B75: 5mer-747 (peptide)
peptide: RKTDK
B76: 5mer-1047 (peptide)
peptide: KAHMR
B77: 5mer-748 (peptide)
peptide: REPMK
B78: 5mer-1048 (peptide)
peptide: KYDNK

Target: acetylcholine receptor
Experiment: SPR, receptor immobilized on CM5 chip, peptide 10 uM

Row | Binder | Binding affinity (RU)
1 | B1 | 142
2 | B2 | 149
3 | B3 | 122
4 | B4 | 139
5 | B5 | 137
6 | B6 | 135
7 | B7 | 123
8 | B8 | 128
9 | B9 | 141
10 | B10 | 142
11 | B11 | 145
12 | B12 | 149
13 | B13 | 154
14 | B14 | 121
15 | B15 | 133
16 | B16 | 145
17 | B17 | 122
18 | B18 | 139
19 | B19 | 136
20 | B20 | 148
21 | B21 | 153
22 | B22 | 146
23 | B23 | 142
24 | B24 | 122
25 | B25 | 154
26 | B26 | 123
27 | B27 | 148
28 | B28 | 121

Row | Binder | Binding affinity (RU)
29 | B29 | 139
30 | B30 | 147
31 | B31 | 139
32 | B32 | 148
33 | B33 | 154
34 | B34 | 151
35 | B35 | 123
36 | B36 | 121
37 | B37 | 153
38 | B38 | 135
39 | B39 | 153
40 | B40 | 135
41 | B41 | 153
42 | B42 | 127
43 | B43 | 127
44 | B44 | 151
45 | B45 | 148
46 | B46 | 141
47 | B47 | 128
48 | B48 | 145
49 | B49 | 148
50 | B50 | 145
51 | B51 | 123
52 | B52 | 121
53 | B53 | 154
54 | B54 | 146
55 | B55 | 149

Target: acetylcholine receptor
Experiment: SPR, AchR immobilized on CM5 chip, peptide at 10 uM

Row | Binder | Binding affinity (RU)
56 | B56 | 28
57 | B57 | 29
58 | B58 | 17
59 | B59 | 16
60 | B60 | 32
61 | B61 | 21
62 | B62 | 17
63 | B63 | 14
64 | B64 | 27
65 | B65 | 11
66 | B66 | 28
67 | B67 | 15
68 | B68 | 15
69 | B69 | 32
70 | B70 | 22
71 | B71 | 14
72 | B72 | 22
73 | B73 | 26
74 | B74 | 19
75 | B75 | 31
76 | B76 | 23
77 | B77 | 12
78 | B78 | 12
